Measured values reported in publication PMC5111854.

Tests used:
[1] = molecular target: Cas5c (Desulfovibrio vulgaris str. Hildenborough); test: ITC
[2] = molecular target: Cas7 (Desulfovibrio vulgaris str. Hildenborough); test: ITC

Question: What does the source list for Cas8c (natural protein)?
Answer: Kd [1]: 3.9 µM; dH [1]: 4.8 kcal/mol; stoichiometry N [1]: 0.57; Kd [2]: 6 µM; dH [2]: 5.2 kcal/mol

Question: How did the Kd [1] turn out when Cas7 (natural protein) was run?
Answer: 3.8 µM

Question: What about the dH [1] of the same substance?
Answer: 5.1 kcal/mol

Question: And the stoichiometry N [1]?
Answer: 0.59
